Source: US20240026017A1 (Kyowa Kirin, published 2024)

Legend:
[1] = target: T1, human CC chemokine receptor 1 (human CCR1) (human, UniProt P32246 1-355); assay: cell-based or functional assay
T1 sequence: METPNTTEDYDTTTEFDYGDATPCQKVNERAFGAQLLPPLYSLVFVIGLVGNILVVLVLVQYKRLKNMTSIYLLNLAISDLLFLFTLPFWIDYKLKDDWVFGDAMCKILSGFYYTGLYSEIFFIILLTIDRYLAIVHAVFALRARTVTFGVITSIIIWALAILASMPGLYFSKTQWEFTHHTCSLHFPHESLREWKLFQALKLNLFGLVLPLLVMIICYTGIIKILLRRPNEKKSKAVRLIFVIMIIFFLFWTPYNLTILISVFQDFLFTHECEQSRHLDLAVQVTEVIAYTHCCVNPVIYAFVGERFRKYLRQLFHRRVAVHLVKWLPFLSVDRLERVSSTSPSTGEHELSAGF

[2] = target: T2, NC3-mCCR1 (chimeric receptor in which positions 1 to 31 of mouse CCR1 were substituted with the corresponding … (human; mouse, UniProt P51677 1-31); assay: flow cytometry on CHO-S-NC3-mCCR1 cells, hybridoma culture supernatant diluted 10-fold
T2 construct: expressed on CHO-S cells; End 355 from the stated total length of CCR1; also called CHO-S-NC3-mCCR1 (expressing cells)
T2 sequence: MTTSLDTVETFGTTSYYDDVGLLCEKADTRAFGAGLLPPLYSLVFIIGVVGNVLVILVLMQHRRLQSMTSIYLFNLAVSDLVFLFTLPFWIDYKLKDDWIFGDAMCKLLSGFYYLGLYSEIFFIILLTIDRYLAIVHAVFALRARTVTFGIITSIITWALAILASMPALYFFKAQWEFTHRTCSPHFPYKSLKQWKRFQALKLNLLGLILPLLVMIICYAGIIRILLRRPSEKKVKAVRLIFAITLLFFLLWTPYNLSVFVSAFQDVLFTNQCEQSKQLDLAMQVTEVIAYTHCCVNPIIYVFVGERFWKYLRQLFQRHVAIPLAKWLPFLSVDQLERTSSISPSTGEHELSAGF
Source text: (§1) As test antibodies, each hybridoma culture supernatant diluted 10-fold, an existing mouse anti-human CCR1 monoclonal antibody 53504 antibody (R & D Technologies), and a mouse anti-human CCR3 monoclonal antibody 444-11 antibody (MBL) were used.
(§2) Regarding the measurement results, the fluorescence intensity when a certain cell was stained with a certain test antibody (each hybridoma culture supernatant, 53504 antibody or 444-11 antibody) and a secondary antibody was divided by the fluorescence intensity when the cell was stained only with the secondary antibody. […] In Table 2, the results are indicated as A and B, respectively.

human CCR3 = target: T3, human CCR3 (human, UniProt P51677 1-355); assay: flow cytometry on CHO-S-hCCR3 cells, hybridoma culture supernatant diluted 10-fold
T3 construct: whole, on cells; also called hCCR3; CHO-S-hCCR3 (expressing cells)
T3 sequence (looked up): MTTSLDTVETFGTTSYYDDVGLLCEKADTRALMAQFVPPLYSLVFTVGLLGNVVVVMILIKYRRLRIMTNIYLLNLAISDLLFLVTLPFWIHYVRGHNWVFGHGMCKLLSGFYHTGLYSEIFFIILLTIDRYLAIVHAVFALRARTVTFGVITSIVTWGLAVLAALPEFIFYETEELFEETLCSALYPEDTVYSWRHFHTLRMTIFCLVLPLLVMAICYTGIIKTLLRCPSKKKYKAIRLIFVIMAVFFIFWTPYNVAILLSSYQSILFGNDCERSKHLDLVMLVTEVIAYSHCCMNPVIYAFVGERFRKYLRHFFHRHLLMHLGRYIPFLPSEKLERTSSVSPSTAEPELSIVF
Source text: as §1, §2

[3] = target: T1, human CC chemokine receptor 1 (human …); assay: flow cytometry on CHO-S-hCCR1 cells, antibody 3.2 to 10,000 ng/mL, Geomean compared
Method: The antigen affinity of the chKM5908′ antibody, which is a VL-substituted chimeric antibody, was measured by flow cytometry using the CHO-S-hCCR1 cells produced in Example 2. The cells were collected by centrifugation, the supernatant was removed, and the cells were suspended in PBS (Staining Medium, hereinafter, abbreviated as SM) containing 2% fetal bovine serum (FBS), 0.05% NaN₃, and 1 mM EDTA. Next, the cells were seeded in a 96-well plate so that the number of cells is 1×10⁵ per well, and the chKM5908′ antibody was added at each final concentration of 10,000, 2,000, 400, 80, 16, and 3.2 ng/mL, and the reaction was performed at 4° C. for 60 minutes. After washing the cells with SM, Goat F (ab′)₂ Anti-Human IgG PE (γ chain specific) (Southern Biotech) diluted 500-fold with SM was added and reacted at 4° C. for 60 minutes. After washing the cells with SM, the cells were resuspended in 50 μL of SM, and the fluorescence intensity was measured by the flow cytometry (FACS Canto II, BD Biosciences).
The data was analyzed by FlowJo 7.65 (Tommy Digital Biology Co., Ltd.), and the binding strength was compared from the Geomean value at each concentration.

B1: hzKM5916 LV2HV0 antibody (antibody, V domains shown)
VH: QVQLQESGGGLVKPGGSLKLSCAASGFTFSRNAMSWVRQTPDKRLEWVAYISSGSDYIYYADTVKGRFTISRDNAKNTLYLQMSSLKSEDTAMYYCARFSYGYGKNAPDYWGQGTMVTVSS
VL: DIQMTQSPSSLSASVGDRVTITCKASQDINKYIAWYQHKPGKGPKLLIHYTSSLQPGVPSRFSGSGSGTDFSFTISSLQPEDLATYYCLQYDYTMTFGGGTKVEIK
**Q.** For B1, which “antibody concentration showing THP-1 migration inhibitory activity” value [1] is on record?
**A.** ≥ 0.3 µg/mL

B2: KM5955 antibody (antibody, mouse IgG2a, V domains shown)
VH: EVQLVESGGGLVKPGGSLKLSCAASGFTLRDFGMHWVRQVPEKGLEWVAYISSGRTAISYVDKVKGRFTISRDNAKNTLFLQMTSLRSEDTAMYYCARRPYSKSYAMDYWGQGTSVTVSS
VL: DVVLTQTPLSLPVNIGDQASISCKSIKSLLNSDGFTYLDWYLQKPGQSPQLLIYLVSNRFSGVPDRFSGSGSGTDFTLKIRRVEAEDLGVYYCFQSNYLPLTFGAGTKLELK
notes: mouse IgG2a from hybridoma
**Q.** What does the source list for B2?
**A.** fluorescence intensity ratio (test antibody + secondary / secondary only) [2]: < 10 fold; fluorescence intensity ratio (test antibody + secondary / secondary only) (human CCR3): < 10 fold

B3: chKM5908′ antibody (antibody, V domains shown)
VH: QVQLKQSGPGLVQPSQSLSITCTVSGFSLNNYGVHWVRQPPGKGLEWLGVIWSAGTTVYNAAFISRLSISKDDSKSQVFFKMNSLQAGDTAIYYCAKDGSRYYTAMDYWGQGTSVTVSS
VL: DVVMTQTPLSLPVSLGDQASIFCRSSQSLVHRNGITFFHWYLQKPGQSPKLLIYKVSNRFSGVPDRFSGSGSGTDFTLKISRVAPDDLGVYFCSQGTHVPPTFGGGTKLEIK
notes: chimeric; also called VL-substituted chimeric antibody (VH of chKM5908, VL of chKM5914)
**Q.** Does B3 bind [3]?
**A.** binds
